Assay results from article PMC7095019.

Biological target: H1 A/New Caledonia/20/1999 haemagglutinin, wild-type trimeric protein (influenza A virus A/New Caledonia/20/1999 (H1N1)) (UniProt Q6WG00)
Experiment: ELISA

CR6261 inferred germline antibody, germline heavy and germline light chain, soluble IgG
ELISA endpoint dilution titre: > 100 µg/mL

CR6261 somatic (mature) antibody, somatic heavy and somatic light chain, soluble IgG
ELISA endpoint dilution titre: 0.00133 µg/mL
